Kd data for one molecule are collected here from publication doi:10.1101/317677.

The target in this data set is T1, Lon (wildtype) (UniProt P0CAW0 1-799).
T1 sequence: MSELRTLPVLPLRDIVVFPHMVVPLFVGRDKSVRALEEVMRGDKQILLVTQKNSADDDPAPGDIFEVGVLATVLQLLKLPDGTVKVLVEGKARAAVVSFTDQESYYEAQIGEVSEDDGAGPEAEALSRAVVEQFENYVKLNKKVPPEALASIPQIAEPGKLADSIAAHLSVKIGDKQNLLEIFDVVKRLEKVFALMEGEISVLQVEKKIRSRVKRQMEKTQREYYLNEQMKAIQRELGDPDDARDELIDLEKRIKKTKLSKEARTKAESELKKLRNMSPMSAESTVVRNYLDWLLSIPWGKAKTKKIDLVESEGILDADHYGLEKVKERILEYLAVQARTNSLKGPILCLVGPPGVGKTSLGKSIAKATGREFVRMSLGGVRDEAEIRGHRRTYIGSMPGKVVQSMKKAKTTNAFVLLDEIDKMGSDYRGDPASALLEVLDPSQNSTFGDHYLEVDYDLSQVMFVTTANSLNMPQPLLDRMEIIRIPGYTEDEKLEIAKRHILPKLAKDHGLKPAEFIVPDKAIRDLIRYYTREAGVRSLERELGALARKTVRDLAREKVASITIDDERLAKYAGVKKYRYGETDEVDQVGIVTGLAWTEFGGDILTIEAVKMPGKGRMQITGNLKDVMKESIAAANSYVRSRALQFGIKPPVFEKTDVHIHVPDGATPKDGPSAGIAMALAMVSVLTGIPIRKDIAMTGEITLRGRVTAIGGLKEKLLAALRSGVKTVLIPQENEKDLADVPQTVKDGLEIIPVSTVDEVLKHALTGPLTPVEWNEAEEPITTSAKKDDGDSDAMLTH
Description: fluorescence polarization. A general note: In fluorescence polarisation assays a small probe gives low polarisation when free and higher when bound to something large.

B1: FAM-DNA oligo (ssDNA)
DNA: AACGGATGATCCACAGGAGAGTCTGGCGCAGGGCGAGAG
As a reminder, the Kd is a measure of binding affinity in units of concentration. As to B1, binding was characterised by a dissociation constant (Kd) of 286 nM.
